Experimental data published in article PMC4928626.

What was measured:
[1] = target: aerobactin synthetase IucA from hypervirulent Klebsiella pneumoniae hvKP1 (Klebsiella pneumoniae hvKP1 (hypervirulent pathotype)); assay: SEC
[2] = target: aerobactin synthetase IucA from hypervirulent Klebsiella pneumoniae hvKP1 (Klebsiella pneumoniae hvKP1 (hypervirulent pathotype)); assay: native gel or EMSA
[3] = target: aerobactin synthetase IucA from hypervirulent Klebsiella pneumoniae hvKP1 (Klebsiella pneumoniae hvKP1 (hypervirulent pathotype)); assay: SAXS

Measured: stoichiometry N

aerobactin synthetase IucA from hypervirulent Klebsiella pneumoniae hvKP1 (from UniProt A0ACD7U9R1 1-596) (enzyme)
4: all assays above
